From patent publication US5821227A, “Modulators of cytokines of the tgf β superfamily” (Mount Sinai Hospital Corporation, priority 1995, dated 1998) come the findings set out here.

The target in experiment [1] is T1, TGF-β1 (Homo sapiens, UniProt P01137).
T1 construct: purchased Collaborative Research (Bedford, Mass.)
The experiment can be described thus: BIAcore surface plasmon resonance binding to immobilized TGF-β1. The settings on record: for binding to immobilized TGF-β1 (in words): BIAcore sensorgram. On the procedure: (§1) In this system, a purified protein serving as the ligand is covalently coupled to a carboxymethylated dextran surface, and binding molecules (ie. the analyte) are passed in a fluid phase across the surface. Binding of the analyte to ligand causes a change in reflected light which is directly proportional to mass bound, and is measured in arbitrary response units (R.U.). Analyte-ligand binding is observed as both increasing response with time during the injection of analyte, and the difference in the position of the baseline before and after injection.
(§2) Schuster, R. V. Swanson, L. A. Alex, R. B. Bourret, M. I. Simon, Nature 365, 343 (1993). 1000 R.U. equals approximately 1 ng/mm^2. The running buffer was 20 mM Hepes (pH7.2), 150 mM NaCl and the flow rate for all sensorgrams was 3 μl/min. Injection volumes were 36 μl for FIG. 2, 4 and 5 and 45 μl for FIG. 3. […] Protein concentrations in each experiment were (FIGS. 2 and 3), 2, 5, 10, 20, 30, 40 μM; (FIG. 4), 0.21, 0.31, 0.41, 0.62, 0.82, 1.24 μM; (FIG. 5), 0.22, 0.29, 0.44, 0.59, 0.88 μM. R.U. for the immobilized cytokine in each experiment was 2850 R.U. for FIGS. 2 and 3; 7450 R.U. for FIG. 4, and 5300 R.U., for FIG. 5 respectively.
(§3) Data was analyzed using the BIA-evaluation software (Pharmacia Biosensor). The association rate constant, kass, was calculated by first plotting the change in response with time versus response (ie. dR/dT vs R). When the slope of the line from this graph is plotted versus analyte concentration (i.e d(dR/dT)/dR vs C), kass is obtained from the slope of the line. The dissociation rate constant, kdiss, is obtained during the decrease in response with time after analyte injection is discontinued. Specifically, kdiss was obtained from the slope of the line in a plot of ln(Rt1 /Rtn) vs time. The affinity constants were calculated from KD =kdiss /kass. Variance for kass is standard error of the linear regression plot, and for kdiss values are the mean±range of 3 or more independent injections.

Another experiment deals with T2, BMP-6 (Homo sapiens, UniProt P22004).
T2 sequence (P22004 375-513): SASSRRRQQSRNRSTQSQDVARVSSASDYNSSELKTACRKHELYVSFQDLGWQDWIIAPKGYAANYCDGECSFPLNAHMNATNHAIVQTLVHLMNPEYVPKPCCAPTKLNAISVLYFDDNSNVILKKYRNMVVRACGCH
Briefly: BIAcore surface plasmon resonance binding to immobilized BMP-6. The settings on record: ligand BMP-6. As to the method: as §1, §2, §3
(In general: Surface plasmon resonance follows binding to a sensor surface in real time, without labels.)

Another experiment addresses T3, BMP-2 (Homo sapiens, UniProt P12643).
T3 construct: purchased Genetics Institute, Cambridge, Mass; (a gift, not bought)
T3 sequence (P12643 283-396): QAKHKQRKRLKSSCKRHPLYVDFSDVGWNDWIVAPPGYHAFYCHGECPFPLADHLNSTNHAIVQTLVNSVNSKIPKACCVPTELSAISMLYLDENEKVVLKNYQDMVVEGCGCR
Briefly: BIAcore surface plasmon resonance binding to immobilized BMP-2. The settings on record: for Kd: ligand BMP-2, KD = kdiss/kass; for kdiss / kass: ligand BMP-2 immobilized; for kass: ± standard error of linear regression. As to the method:
as §1, §2, §3

In a further experiment the target is T4, TGF-β2 (Homo sapiens, UniProt P61812).
T4 sequence (P61812 303-414 limits assumed): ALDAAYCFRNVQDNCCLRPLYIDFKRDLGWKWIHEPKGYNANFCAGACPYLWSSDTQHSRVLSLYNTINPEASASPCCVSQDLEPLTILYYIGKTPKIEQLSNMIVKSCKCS
The experiment can be described thus: BIAcore surface plasmon resonance binding to TGF-β2. The note with it: ligand TGF-β2; for Kd: KD = kdiss/kass; for kass: ± standard error of linear regression. On the procedure: as §1, §2, §3

Experiment [2] has as its target T1, TGF-β1. The experiment can be described thus: Mv1Lu growth inhibition assay: neutralization of the antiproliferative activity of TGF-β1 (3H-thymidine incorporation). The class given is cell-based. The note with it: Mv1Lu cells; for IC50 / Maximal effect, percent neutralization: TGF-β1 12 pM; for IC50: 3H-thymidine incorporation, read-out: half-maximal inhibition (IC50) of the anti-proliferative activity of TGF-β1; for Maximal effect, percent neutralization: 0% = TGF-β1 alone, 100% = no additions. As to the method:
Mv1Lu cells were seeded at 20,000 cells/well in a 96 well plate containing 0.2% FCS in α-MEM and incubated with the indicated concentrations of proteins for 18 hr. […] Before use, bovine thyroglobulin was spun twice in a centricon (M.W. cutoff of 10,000 Da) micro-concentrator (Amicon, Beverly, Mass.) to remove any excess Iodine and T3/T4 thyroid hormones.
For orientation: Dividing cells build labelled thymidine or BrdU into new DNA.

For the next experiment, the target named is T5, BMP-4 (Homo sapiens, UniProt P12644).
T5 sequence (P12644 293-408): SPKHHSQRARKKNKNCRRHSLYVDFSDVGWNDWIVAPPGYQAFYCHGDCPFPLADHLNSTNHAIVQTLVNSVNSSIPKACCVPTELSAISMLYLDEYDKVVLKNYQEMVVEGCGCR
Briefly: BIAcore surface plasmon resonance binding to immobilized BMP-4. The settings on record: ligand BMP-4; for Kd: KD = kdiss/kass. As to the method:
as §1, §2, §3

[3] abbreviates: ligand TGF-β1, KD = kdiss/kass, read-out: KD.
Setting [4] is: ± standard error of linear regression.
[5] abbreviates: ligand TGF-β1 immobilized, ± standard error of linear regression.

Read-outs that look alike come from different tables or passages of the source.

T1 sequence (P01137 279-390 limits assumed): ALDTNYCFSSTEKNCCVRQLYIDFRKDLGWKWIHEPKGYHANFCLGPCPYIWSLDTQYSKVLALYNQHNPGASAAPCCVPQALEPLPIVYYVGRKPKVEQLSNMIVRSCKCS

Regarding `CC[C@H](C)[C@H](NC(=O)[C@H](CC(N)=O)NC(=O)[C@H](CCC(=O)O)NC(=O)[C@H](CC(=O)O)NC(=O)[C@H](CC(N)=O)NC(=O)[C@H](CCCCN)NC(=O)[C@H](CCCNC(=N)N)NC(=O)[C@H](Cc1c[nH]c2ccccc12)NC(=O)[C@@H](NC(=O)[C@H](C)NC(=O)[C@@H](NC(=O)[C@@H](N)CSCC(N)=O)C(C)C)C(C)C)C(=O)N[C@H](C(=O)N[C@@H](CC(C)C)C(=O)N[C@@H](CCC(=O)O)C(=O)N[C@H](C(=O)N[C@H](C(=O)N[C@@H](CSCC(N)=O)C(=O)N[C@@H](Cc1c[nH]cn1)C(=O)N[C@@H](CC(=O)O)C(=O)O)C(C)C)[C@@H](C)O)[C@@H](C)O` [TRH1b (TβRII) (reduced & alkylated)], at TGF-β1 [1] (setting [3]), the Kd is over 10000 nM.

With `CC[C@H](C)[C@@H]1NC(=O)[C@H](CC(N)=O)NC(=O)[C@H](CCC(=O)O)NC(=O)[C@H](CC(=O)O)NC(=O)[C@H](CC(N)=O)NC(=O)[C@H](CCCCN)NC(=O)[C@H](CCCNC(=N)N)NC(=O)[C@H](Cc2c[nH]c3ccccc23)NC(=O)[C@H](C(C)C)NC(=O)[C@H](C)NC(=O)[C@H](C(C)C)NC(=O)[C@@H](N)CSSC[C@@H](C(=O)N[C@@H](Cc2c[nH]cn2)C(=O)N[C@@H](CC(=O)O)C(=O)O)NC(=O)[C@H](C(C)C)NC(=O)[C@H]([C@@H](C)O)NC(=O)[C@H](CCC(=O)O)NC(=O)[C@H](CC(C)C)NC(=O)[C@H]([C@@H](C)O)NC1=O` [TRH1b (TβRII)], the koff on TGF-β1 [1] (ligand TGF-β1 immobilized, read-out: kdiss (dissociation rate)) is 0.0019 s⁻¹. Moreover, at TGF-β1 [1] (ligand TGF-β1 immobilized, ± standard error of linear regression, read-out: kass (association rate)), the kon came out at 3700 M⁻¹ s⁻¹.

On to “Fetuin: Bovine fetuin, glycoprotein from fetal calf serum (ammonium sulfate fractionation, gel filtration), purchased from Sigma”, for which the kdiss in the experiment with BMP-6 is 0.0025 s⁻¹; with BMP-2 it was 6.2e-05 s⁻¹; with BMP-2 (listed as fetuin) it was 6.2e-05 s⁻¹; with TGF-β2 it was 0.0032 s⁻¹; with BMP-4, 0.00058 s⁻¹. The Kd in the experiment with BMP-6 (KD = kdiss/kass) was determined as 860 nM; with BMP-2 it was 36 nM; with TGF-β2, 5800 nM; in the experiment with TGF-β1 [1] (ligand TGF-β1, steady-state, read-out: KD, Scatchard type analysis for steady-state binding) it was 4600 nM; with BMP-4 it was 140 nM. Further, the kass with BMP-6 (setting [4]) came to 2900 ± 500 M⁻¹ s⁻¹; with BMP-2 it was 1700 ± 300 M⁻¹ s⁻¹; in the experiment with BMP-2 (listed as fetuin), 1700 M⁻¹ s⁻¹; in the experiment with TGF-β2 it was 550 ± 120 M⁻¹ s⁻¹. Also, the IC50 in the experiment with TGF-β1 [2] came to 4200 nM. Further, the “Maximal effect, percent neutralization” value in the experiment with TGF-β1 [2] is recorded as “approximately 150%”. For the same compound, in the experiment with TGF-β1 [1] (ligand TGF-β1 immobilized), the “kdiss (dissociation rate)” value was found to be 0.0016 s⁻¹. Also, in the experiment with TGF-β1 [1] (setting [5]), the “kass (association rate)” value came to 670 ± 400 M⁻¹ s⁻¹.

In the experiment with BMP-2, “Thyroglobulin: Bovine thyroglobulin purchased from Sigma, containing the TRH1 domain” showed a Kd of 3.1 nM, a kdiss of 0.0001 s⁻¹ and a kass of 32000 ± 2000 M⁻¹ s⁻¹. In the experiment with TGF-β2, this compound yielded a kdiss of 0.005 s⁻¹, an equilibrium dissociation constant (Kd) of 3800 nM and a kass of 1300 ± 600 M⁻¹ s⁻¹. For the same compound, in the experiment with TGF-β1 [2], the “IC50 for inhibition of TGF-β1 activity, fold lower than for fetuin” value was 20 fold; the IC50 was 220 nM; the “Maximal effect, percent neutralization” value is “approximately 150%”. Besides, the dissociation constant Kd with TGF-β1 [1] (setting [3]) was found to be 680 nM. In the experiment with TGF-β1 [1] (ligand TGF-β1 immobilized), the “kdiss (dissociation rate)” value came to 0.0019 s⁻¹. Further, the “kass (association rate)” value with TGF-β1 [1] (setting [5]) amounted to 2800 ± 1000 M⁻¹ s⁻¹. In the experiment with BMP-4, this compound yielded a kdiss of 0.0011 s⁻¹ and a Kd of 20 nM. The kass with BMP-4 (setting [4]) is 54000 ± 7000 M⁻¹ s⁻¹.

On to “human transferrin: Non-binding control passed over immobilized TGF-β1 [reference compound]”, for which, in the experiment with TGF-β1 [1], the “binding to immobilized TGF-β1 (in words)” value is “non-binding”.

Take “reduced and alkylated fetuin: Fetuin, reduced and alkylated, compared to native fetuin”: in the experiment with BMP-2 (BIAcore sensorgram), the “binding to immobilized BMP-2 (in words)” value is recorded as “diminished binding”. In the experiment with TGF-β1 [1], the “binding to immobilized TGF-β1 (in words)” value is “diminished binding”.

As a reminder, the Kd is the free concentration of one partner at which half of the binding sites on the other are occupied at equilibrium, for simple one-to-one binding. The term IC50 denotes the concentration that inhibits the measured activity by half.
